Laboratory results: publication PMC7714071, “Interaction of amyloid beta with humanin and acetylcholinesterase is modulated by ATP” (FEBS Open Bio, 2020)

Assays:
A549 cells = assay: MTT cell viability, A549; format: cell-based, human; settings: AChE-ID media, 48 h, A549; Fig. 7A
Procedure: Human NSCLC cell lines, A549 (ATCC CCL‐185) and H1299 (ATCC CRL‐5803), were purchased from the American Type Culture Collection (ATCC, Manassas, VA, USA). Cells were seeded as we reported earlier in 5 mL HyClone Dulbecco's modified Eagle's medium/nutrient mixture F‐12 (DMEM/F12) (GE Healthcare Life Sciences, Pittsburgh, PA, USA), supplemented with 10% Fetalgro bovine growth serum (FBS; RMBIO, Missoula, MT, USA), 50 U·mL^−1 penicillin, and […] streptomycin (Invitrogen, Life Technologies, Carlsbad, CA, USA) in 25‐cm^2 tissue culture flasks, and allowed to grow overnight in an incubator at 37 °C, 95% humidity, and 5% CO2. The cells were counted after trypan blue staining, with a hemocytometer.
The 3‐(4,5‐dimethylthiazol‐2‐yl)‐2,5‐diphenyl‐tetrazolium bromide (MTT) reduction assay (Sigma‐Aldrich), used to measure cell viability, was carried out as we reported earlier. […] The absorbance was measured at 570 nm in a plate reader. […]
Conditioned media were immunodepleted (ID) according to the methods previously described and our recently published report. […] The ID media were then carefully removed and analyzed for the presence of the target protein or peptide by ELISA. The same amount of protein (3 µL of 600 µg·mL^−1 total protein) of each sample was analyzed in the experiments. […]

Aβ40 = settings: decreased lag phase; cited from earlier work
From the text: Almost all types of cells produce amyloid beta (Aβ), a peptide well recognized for its role in the development and progression of different stages of Alzheimer's disease (AD). The Aβ peptide is ~ 4 kDa and derived from the sequential processing of the higher molecular weight amyloid precursor protein by two membrane‐bound endoproteases, β‐ and γ‐secretase. Different C‐terminal Aβ heterogeneity results from processing by γ‐secretase, where Aβ40 represents the most abundant isoform (~ 90%) as compared to Aβ42 (~ 10%). Self‐assembled Aβ40/42 peptides into amyloid fib ... || Humanin (HN) is a secreted 21‐ to 24‐amino acid mitochondrial‐derived peptide. Certain amino acid residues in HN have been identified to be involved in different functions, including binding to Aβ [55, 56]. […] HN was identified previously as a binding partner of Aβ, likely modulating its aggregation pathways and counteracting its deleterious effects. […] The specific epitopes at the binding interface between HN and Aβ40 were identified, by proteolytic epitope excision and extraction in addition to affinity–mass spectrometric data analysis, to be HN (5–15) and Aβ (17–28). […] Inhibiting the 17–28 region of Aβ reduced aggregation of the neurotoxic amyloid fibrils and related cytotoxicity in SH‐SY5Y, a human neuroblastoma cell ... || (+ 1 further places)

B1: acetylcholinesterase (protein)
chain: EGREDAELLVTVRGGRLRGIRLKTPGGPVSAFLGIPFAEPPMGPRRFLPPEPKQPWSGVVDATTFQSVCYQYVDTLYPGFEGTEMWNPNRELSEDCLYLNVWTPYPRPTSPTPVLVWIYGGGFYSGASSLDVYDGRFLVQAERTVLVSMNYRVGAFGFLALPGSREAPGNVGLLDQRLALQWVQENVAAFGGDPTSVTLFGESAGAASVGMHLLSPPSRGLFHRAVLQSGAPNGPWATVGMGEARRRATQLAHLVGCPPGGTGGNDTELVACLRTRPAQVLVNHEWHVLPQESVFRFSFVPVVDGDFLSDTPEALINAGDFHGLQVLVGVVKDEGSYFLVYGAPGFSKDNESLISRAEFLAGVRVGVPQVSDLAAEAVVLHYTDWLHPEDPARLREALSDVVGDHNVVCPVAQLAGRLAAQGARVYAYVFEHRASTLSWPLWMGVPHGYEIEFIFGIPLDPSRNYTAEEKIFAQRLMRYWANFARTGDPNEPRDPKAPQWPPYTAGAQQYVSLDLRPLEVRRGLRAQACAFWNRFLPKLLSATDTLDEAERQWKAEFHRWSSYMVHWKNQFDHYSKQDRCSDL
increase in cell viability upon AChE immunodepletion (A549 cells): ~ 1.45 fold | effect on Aβ40 aggregation (Aβ40): significantly accelerated the aggregation
